# From PMC6760140 (2019)
# Where two headings read alike, the source gives them in different places.
# B1: 2586 Fab (Fab, V domains shown)
# VH: EVHLVESGGGLVQPGGSLRLSCAASGFTFSDHYMDWVRQAPGKGLEWVGRIRNKANSYTTDYAASVKGRFTILRDDSKNSLYLQMNSLKTEDAAVYYCVRVGGLGERGDYYYYYMDVWGKGTTVTVSS
# VL: SYELTQPPSVSFSPGQTARITCSGDALSKQYTYWYQQKPGQAPVLVIYKDSERPSGIPERFSGSSSGTTVTLTISGVQAEDEADYYCQSADSSGPYQVLFGGGTKLTVL
# B2: 2544 Fab (Fab, V domains shown)
# VH: EVQLVESGGGLVQPGGSLRLSCVASGFTFSNYNMNWVRQAPGKGLEWLSYISSSSGTIYYADSVKGRFTISRDNAKNSMYLQMNSLRAEDTAVYYCVRVEYYYGSSGYYYDFDSWGQGTLVTVSS
# VL: DIVMTQSPLSLPVTPGEPASISCRSSQSLLHNGYNYLDWYLQKPGQSPQLLIYLGSNRASGVPDRFSGSGSGTDFTLKISRVEAEDVGVYYCMQTLQPFTFGQGTRLEIK
# B3: 2530 Fab (Fab, V domains shown)
# VH: QVQLQESGPGLVKPSETLSLTCTVSGDSMSSYYWSWIRQPAGKGLEWIGRISTSGSTNYNPSLKSRVTMSVDTSNNHFSMRLNSVTAADTAVYYCACSGSYSFFDYWGQGTLVTVSS
# VL: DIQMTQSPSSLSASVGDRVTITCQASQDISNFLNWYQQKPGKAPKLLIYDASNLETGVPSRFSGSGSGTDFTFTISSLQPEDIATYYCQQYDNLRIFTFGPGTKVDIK
# B4: 2587 Fab (Fab, V domains shown)
# VH: QVQLVQSGAEVRKPGASVKVSCKASGYSFTSYILNWVRQATGQGLEWMGWMNPDSNNTEYAQKFQGRVTITRDTSISTVYMELSGLRSEDTAVYYCARHSFKSNTGFDYWGQGTQVTVSS
# VL: SYELSQPPSVSVSAGQTASITCSGDKLGGKYGYWYQQRPGQSPILVIYQDSKRPSGIPERFSGSNSGNTATLTISGTQAMDEADYYCQAWDISTNWVFGGGTKLTVL
# Columns and labels:
# Assay in all cases: BLI
# [1] = target: T1, Recombinant His-tagged Pfs25 (Plasmodium falciparum, UniProt P13829 17-196)
# [2] = target: T1, Recombinant His-tagged Pfs25; remark: listed apart in the source
# [3] = target: T1, Recombinant His-tagged Pfs25; remark: listed apart in the source
Binder,Kd [1] [nM],koff [2] [s⁻¹],Kd [3] [nM]
B1,2.5,0.00037,
B2,,0.00075,
B3,19.2,0.0062,
B4,,0.0007,4.6
